Reference: PMC4018254, “Bacterial Magnetosome Biomineralization - A Novel Platform to Study Molecular Mechanisms of Human CDF-Related Type-II Diabetes” (PLoS ONE, 2014)
Positions count from the first letter of the chain named. Names and notes keep the numbering of the source.

B1: MamM-CTD (cytosolic C-terminal domain of the magnetosome CDF transporter MamM), wild type (domain or fragment, Magnetospirillum gryphiswaldense)
chain: EAVQNRIVEAAERVPGVRGVIHLRARYVGQDIWADMIIGVDPENTVEQAHEICEAVQAAVCGKIRRIESLHVSAEAREIGDTTKPSFSDQPLSFDEVMLSKVDN
notes: MamM, cation diffusion facilitator of Magnetospirillum gryphiswaldense, cytosolic C-terminal domain (CTD); also called wild-type MamM-CTD; apo-MamM-CTD; source: recombinant, purified; expression and purification 'performed as previously described [20], [29], [30]'
B2: MamM-CTD V260W mutant (domain or fragment, Magnetospirillum gryphiswaldense)
chain: B1 chain with V46W
notes: MamM, cation diffusion facilitator of Magnetospirillum gryphiswaldense, cytosolic C-terminal domain (CTD) with V260W; The mutation mimics the W325 allele of human ZnT-8; source: recombinant, purified; expression, purification and site-directed mutagenesis 'performed as previously described [20], [29], [30]'
B3: MamM-CTD V260R mutant (domain or fragment, Magnetospirillum gryphiswaldense)
chain: B1 chain with V46R
notes: MamM, cation diffusion facilitator of Magnetospirillum gryphiswaldense, cytosolic C-terminal domain (CTD) with V260R; The mutation mimics the R325 allele of human ZnT-8; source: recombinant, purified; expression, purification and site-directed mutagenesis 'performed as previously described [20], [29], [30]'

Molecular target: the molecule itself
Assay: SEC; Superdex200; elution volumes of the mutants compared with wild-type MamM-CTD; self-association (dimer)

Protein | stoichiometry N
B1 | 2
B2 | 2
B3 | 2
